Test: yeast display, Sf9 membrane polyspecificity reagent, FACS + sequencing; frameworks hold sequencing errors
Method in brief: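 After 36–48 hours of galactose induction, yeast (Saccharomyces cerevisiae BJ5465) displaying a synthetic nanobody library were stained at 4 °C for 1 hour with 10% biotinylated, detergent-solubilized Sf9 membrane reagent. Streptavidin microbeads enriched the stained cells before FACS sorting into low and high (top ~1%) gates on anti-HA and streptavidin fluorescence. Each clone's polyreactivity label reflects its gate of origin.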

Sequence | polyreactivity (PSR sort gate)
QVQLVEAGGGLVQAGVSLRLSCAASGIIFGSYAMGWYRQAPGKERELVATISYDGGSTYYADSVKGRFTISRDNAKNTVYLQMKSLKPDDTAVSYCAAVYQSWFGLRSYYYWGQGTQVTVSS | high polyreactivity
QVQLVESGGGLVQAGGSLRLSCAASGSIFSYNGMGWYRQAPGKERELVATISASSVTTYYADSVKGRFTFSRDNAMNTVYLQMNSLKPEDTAVYYCARDAYSVYYYVFLHWEYDYWGQGTQVTVSS | high polyreactivity
QVQLVESGGGLVQAGGSLRLSCAASGFIFYINAMGWYRQAPGKERELVAAISTSGGSTYYADSVKGRFTISRDNAKNTVYLQMNSLKPEDSAVYYCAAEGSYWYYSYDYWGQGTQVTVSS | high polyreactivity
QVQLVESGGGLVQAGGSLRLSCAASGRIFAYYAMGWYRQAPGKERELVAAINRSGVRTYYADSVKGRFTISRDNAMNTVYFQINSLKPEDTAVYYCAAYVVGGEGDYWGQGTQVTVSS | high polyreactivity
QVQLVESGGGLVQAGGSLRLSCAASGRIFYSYGMGWYRQAPGKERELVATISIGGSTNYADSVKGRFTSSRDNAKNTVYLQMNSLKPEDTAVYYCNARAWFSYTSRRYTYWQEGYWGQGTQVTVSS | high polyreactivity
QVQLVESGGGLVQAGGSLRLSCAASGRIFSRNAMGSYRQAPGKERELVAAITSGGSTYYADYVKGRFTISSDNAKNTVYLQLNSLKPEDTAVYTVKILRYDYWGQGTQVTVSS | high polyreactivity
QVQLVESGGGLVQAGGSLRLSCAASGRIFGYNAMGWYRHAPGTERELVAAITNGGSTNYADSVKGRFTISRDNAKNTVYLQMNSLKPEDTAVYYCAADRGGLRWFWQVLYDYWGQGTQVTVSS | low polyreactivity
QVQLVESGGGLVQAGGSLRLSCAASGRTFLRNAMGWYRQAPGKERELVATISWGGGSTYYADSVKGRFTISRDNAKNTVYLQMNSLKPEDTAVYYCAKQRAWSGFDYWGQGTQVTVSS | high polyreactivity
QVQLVESGGGLVQAGGSLRLSCAASGSIFPENVMGWYRQAPGKERELVAAISWSGGSTYYADSVKGRFTISRDNAKNTVYLQMNSLKPEVTAVYYCNRVPSWRIDYDYWGQGTQVTVSS | low polyreactivity
QVQLVESGGGLVQAGGSLRLSCAASGFIFGDNAMGWYRQAPGKERELVAGITVSDGSTYYADSVKGRFTISRDNAKNTVYLQMNSLKPEDTAVYYCNAAGRYKPGAPYDYWGQGTQVTVSS | low polyreactivity
QVQLVESGGGLVQAGGSLRLSCAASGSTFLYVMGWYRQAPGKERELVAAISESGGSTYYADSVKGRFTISRDNAKNTVYLQMNSLKPEDTAVYYCAADLQTGLQYRYYRVDYWGQGTQVTVSS | low polyreactivity
QVQLVESGGGLVQAGGSLRLSCAASGFTFYYYTMGWYIKAPGKERELVAAITRSGGRTYYADSVKGRFTISRDNAKNTVYLQMNSLKPEDTAVYYCAARTPFYNSYRRDYWGQGTQVTVSS | high polyreactivity
QVQLVESGGGLVQAGGSLRLTCAASGYTFYSYAMGWYRQAPGKERELVAAIRTGGGTNYADSVKGRFTISRDNAMNTVYLQMNSLKPEDTAVYYCAADSFDPAGHVDYWGQGTQVTVSS | low polyreactivity
QVQLVESGGGLVQAGGSLRLSCAASGFISVRNAMGWYRQAPGKERELVAAISSGDTTDYADSVKGRFTISRDNAKNTVYLQMISLKPEDTAVYYCAAVYYGRYYYWGQGTQVTVSS | low polyreactivity
QVQLVESGGGLVQAGGSLRLICEASGFIFDDNAIGSYRQAPGKERELVAAITSGGGSTYYADSVKGRCTISRDYAKNTVYLHMNSLKPEDTAVYYCNAVPSQHDEFDYWGQGTQVTVSS | low polyreactivity
QVQLVYSGGGLVQAGGSLRLSCAASGIIFGVNAMGWYRQAPGKERELVAAISSSGGSTYYADSVKGRFTISRDNAKNTVYLQMNSLKPEDTAVYYCAASYYHYAPFDYWGQGTQVTVSS | high polyreactivity
QVQLVESGGGLVQAGGSLRLSCAASGFTFPSYAMGWYRQAPGNERELVAVLSRRGGSTYYADSVKGRFTISRDNAKNTVYLQMNSLKPEDTAVYYCAADFRYYLTTRFNYWGQGTQVTVSS | high polyreactivity
QVQLVESGGGLVQAGGSLRLSCAASGFIFPRNAMGWYRQAPGKERELVAGITRGGSTNYADSVKGRFTISRDNAKNTVYLQMNSLKPEDTAVYYCAAKSYNYNRPYGWREYDYWGQGTQVTVSS | high polyreactivity
QVQLVESVGGLVQAGGSLRLSCAASGRTFRAYAMGWYRQEPGKERELVAAIRWGGGRTYYADSVKGRFTISRDNAKYTVYLQMNSLKPEDTAVYYCAADRTYDYDYWGQGTLVTVSS | high polyreactivity
QVQLVESGGGLVQAGGRLRLSCAASGINFSHKVMGWYRQAPGKERELVAAITYSGGSTYYADSVKGRFTSSRDNAKNTVYLQMNSLKPEDTAVYYCNALGVSRRDYDYWGQGTQVTVSS | low polyreactivity
QVQLVESGGGLVQAGGSLRLSCAASGSIFRFNVMGWYRQAPGKERELVAAITRGDSTNYADSVKGRFTISRDNAKNTVYLQMNSLKPEDTAVYYCAAGYYYYLRDHDYWGQGTQVTVSS | low polyreactivity

Sequence | polyreactivity (PSR sort gate)
QVQLVESGGGLVQAGGSLRLSCAASGSIIVYYGMGWYRQAPGKERELVAAISSGGSTHYADSVKGRFTISRDNAKNSVYLQMNSVKPEDTAVYYCAADRFFWLRSYPRYYYWGQGTQVTVSS | low polyreactivity
QVQLVESGGGLVQAGGSLRLSCAASGLIFVDNAMGWYRQAPGKERELVAAIESGGSTNYADSVKGRFTISRDNAKNTVYLHMNSLKPEDTAVYYCAADWIYAPWYYQESVEYYYWGQGTQVTVSS | low polyreactivity
QVQLVESGGGLVQAGGSLRLSCAASGSTFVYYAMGWYRQAPGKERELVAAISWSSDSTYYADSEKGRFTISRDNAKNTVYLQMNSLKPEDTAVYYCARSDGRQSYWTDFSTDYYFWGQGTQVTVSS | low polyreactivity
QVQLVESGGGLVQAGGSLRLSCAASGFTFYGYAMGWYRQAPGKERELVAAINSGAITNYADSVKGRFTISRDNAKNTVYLQMNSLKPEDTAVYYCAASYRRLTGVGADEYWGQGTQVTVSS | high polyreactivity
QVQLVESGGGLVQAGGSLRLSCAASGRTFPGYGMGWYRQAPGKERELVAVITSNGGITYYADSVKWRFTISRDIAKYTVYLVMNRLIAEDTAVYFCAAYEIYYEFVCWGQGSQVTVSS | low polyreactivity
QVQLVESGGGLVQAGGSLRLSCAASGSTYRYYAMGWYRQAPGKERELVAGISWSGTSTYYADSVKGRFTISRDNANNTVYLQMNSLKPEDTAVYYSNVVWWSRYGTTYKYDYWGQGTQVTVSS | high polyreactivity
QVQLVESGGGLVQAGGSLRLSCAASGRIYLNAMGWYRQAPGKERELVAAISSRGASTYYADSVKGRFTISRDNAKNTVYLQMKSLKPEDTAVFYCAARLRNIYYFRMGYWGQGTQVTVSS | high polyreactivity
QVQLVESGGGLVQAGGSLRLSCAASGSTFGSYAMGWYRQAAGKERELVAGNSWSGGRTYYADSVKGRFTISRDNAKNTVYLQMNSLKPEDTAVYYCARDTGYYYARYNYWGQGTQVTVSS | low polyreactivity
QVQLVESGGGLVQAGGSLRFSCAASGYIFYKYAMGWYRHAPGKERELVAAIRRSGGSTYYADSVKGRFTISRDNAKNTVYLQMNSLKPEDTAVYYCAARYFRGSYPMGYWGQGTQVTVSS | high polyreactivity
QVQLVESGGGLVQAGGSLRLSCAASGITFYYYAMRWYRQAPGKERELVAAISRGGSTYYADSVKGRFTISCDNAKNTVYLQMNSLKPEDTAVYYCNAYTTGYLFGYWGQGTQVTVSS | high polyreactivity
QVQLVESGGGLVQAGGSLRLSCAASGNTLVYYAMGWYRQAPGKERELVADISSSGGITYYADSVKGRFTISRDNAKNTVYLLMNSLKPVDTAVYYCAVDYPLYYWYLYNYWGQGTQVTVSS | low polyreactivity
QDQLVESGGGLVQAGGSLRLSCAASGRNFRYYTMGWYRQAPGKERELVAAITRRGGITNYADSVKGRFTISRDNGKNTVYLQMNSLKPEDTAVYYCAAKYVSQCYDYWGQGTQVTVSS | high polyreactivity
QVQLVESGGGLVQAGGSRRLRCAASGRIFKNYAMGWYRQAPGKERELVAAMTWSVGSTYYADSVKGRFTISRDNAKKTVYLQMNSLKPEDTAVNYCAARRSGTYRYRYEYWGQGSQVTVSS | low polyreactivity
QVQLVESGGGLVQAGGSLRLRCAASGGTFYPYALGWYRQAPGKESELVAAISTSGGITYYADSVKARFTISRDNAKNTVYLQMNSLKPEDTAVYYCAAPVAYRGSRNFIYRYNYWGQGTQVTVSS | high polyreactivity
QVQLVESGGGLVQAGGSLRLSCAASGLTFWHYAMGWYRQAHGKERELVAAISSGGRTYYADSVKGRFTISRDNAKNTVYLKMNSLKPEDSAVYYCAARGPQYYVYGYDYWGQGTQVTVSS | high polyreactivity
QVQLVESGGGLVQAGGSLRLSCAASGFTFTGYAMGWYRQAPGKERELVAAITRGGGSTYYADSVKGRFTISRDNAKNTVYLQMNSLKPEDTAVYYCAAQRSRLIRISSPYYGHDYWGQGTQVTVSS | low polyreactivity
QVQLVESGGGLVQAGGSLRLSCAASGRTFRSYAMGWSRQAPGKGRELVAAISRSGGTTTYADSVKGRFTISRDNAKNTVYLQMNSLKPEDTAVYYCARGQNRYWQFHGAYDYWGQGTQVTVSS | high polyreactivity
QVQLVESGGGLVQAGGSLRLSCAASGFTFSRNAMGWYRQAPGKERELVAAITWSGGRTYYADSVKGRFTLSRDNAKNTVYLQMNSLKPEDTAVYYCAARKYHLRSAYDYWGHGTQVTVSS | low polyreactivity
QVQLVESGGGLVQAGGSLRLSCAASGSTFAKYAMGWYRQAPGKERELVASIRLSGGSTYYADSVKGRFTISRDNAKNTVYLQMNSLKPEDTAVYYCNKPFPYYPDGPNGYDYWGQGTQVTVSS | low polyreactivity
QVQLVESGGGLVQAGGSLRLSCAASGRIFKFNAMGWYRPAPGKERELVAAITTGGGSTYYADSVKGRFTISRDNAKNTVYLQMNSLKPEDSAVYYCATDRRHVYSSRRYYYWVQGTQVTVSS | high polyreactivity

— the nanobody polyreactivity screen of Harvey et al. (2022)
